Measurements as given in the nanobody polyreactivity screen of Harvey et al. (2022).

Experiment: yeast display, Sf9 membrane polyspecificity reagent, FACS + sequencing; frameworks hold sequencing errors
In short: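 Sorting gates, low and high (top ~1%), were placed on anti-HA fluorescence to track expression and on streptavidin fluorescence to track reagent binding. A clone's polyreactivity label is taken from the gate it came out of. The reagent was 10% biotinylated, detergent-solubilized Sf9 membrane, applied for 1 hour at 4 °C to galactose-induced yeast display cells.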

| Sequence | polyreactivity (PSR sort gate) |
| --- | --- |
| QVQLVESGGGLVQAGGSLRLSCAASGFTFNCNAMGWYRQAPGKERELVAAIRSSGGSTYYADSVKGRFTISRDNAKYTVYLQMNSLKPEDTAVYYCAARRSNLYYGGTRYWYYYWGQGTQVTVSS | high polyreactivity |
| QVQLVESGGGLVQAGGSLRLSCAASGSIFSRNAMGWYRQAPGKERELVAAISWRGGSTYYADSVKGRFTISRDNAKYTVYLQMNSLKPEDTAVYYCGALSYPGKAGMGYWGQGTQVTVSS | high polyreactivity |
| QVQLVESGGGLVQAGGSLRLSCAASGSIFYKYTMGWYRQAPGKERELVAAISRSGGSTYYADSVKGRFTISRDNAKNTVYLQMNSLKPEDTAVYYCATTRRVPGEYWGQGTQVTVSS | high polyreactivity |
| QVQLVESGGGLVQAGGSLRLSCAASGSTSKWYAMGWYRPAPGKERELVAAITKTGGRTYYADSVKGRFTISRDNAKNTVYLQMNSLKPEDTAVYYCAVEYLRGFIVIYDYWGQGTQVTVSS | high polyreactivity |
| QVQLVESGGGLVQAGGSLRLSCAASGSIFYTYVMGWYRPAPGKERELVAVISWSSTSTYYADSVKGRFTISRDNAKKTVYLQMNSLKPEDTAVYYCAAGVHRYRPGHGYDDGGYYWGQGTQVTVSS | low polyreactivity |
| QVQLVESGGGLVQAGGSLRLSCAASGSTLFWNAMGWYRKAPGKERELVAVISFSGVSTYYADSVKGRFTISRDNAKNTVYLQLNSLKPEDTAVYYCAAGRCLYYYYGYVDKYGYWGQGTQVTVSS | low polyreactivity |
| QVQLVESGGGLVQAGGSLRLSCAASGRTFYYYAMGWYRQAPGKERELVAGITATGSSTYYADSVKGRFTISRDNAKNTVYLQMNSLKPEDTAVYYCAADRYTTYSGQWSYPYDYWGQGTQVTVSS | low polyreactivity |
| QVQLVESGGGLVQAGGSLRLSSAASGRIFGTYAMGWYRQAPGKERELVAAITSGGRTYYADSVKGRFTISRDNAKNTVYLQMNSLKPEDNAVYYCARPSGYRKYYYWGQGTQVTVSS | high polyreactivity |
| QVQLVESGGGLVQARGSLRLSCAASGRNFPSNAMGWYRQAPGKERELVPVITRGSRTKYADCVKGRFTISRDKAMNTVYLQMNSLKPEDSAVYYCAALGGLLYTQGHSEAYWGQGTQGTVSS | low polyreactivity |
| QVQLVESGGGLVQAGGSLRLSCAASGIIFAYNAMGWYRQAPVKERELVAAISVIGGTTYYADSVKGRFTISRDNAKITVYLQMNSLKPEDTAVYYCAVDSVQYGGGYERLHDLYYWGQGTQVTVSS | low polyreactivity |
| QVQLVESGGGLVQAGGSLRLSCAASGSIFDENAMGWYRQAPGKERELVAAITGSGVRTYYADSVKGRFTISRDNAKNTVYLQMNSLKPEDTAVYYCNRVKSGSYKFGYWGQGTQVTVSS | high polyreactivity |
| QVQLEESGGGLVQAGGSLRLTCAASGLTSRNYAMGWYRHAPRKARELVAAISKSGSRTYYADSVKGRFTISRDNAKNTVYLQMNSLKPEDTAVYYCATDYLDGTSYDYWGQGTQVTVSS | high polyreactivity |
| QVQVVESGGGLVQAGGSLRLSCAASGRIFPYYTMGWYRQAPGKERDLVAAISRRGSSTYYADSVKGRFTISRDNAKNTVYLQMNSLKPEDTAVYYCAADRGGYTRTGEYDYWGQCTQVTVSS | high polyreactivity |
| QVQLVESGGGLVQAGGSLRLSCAASGRTFYAYAMGWYRQAPGKERELVAAITSGASTYYADSVKGRFTISRDNAKNTVYLQMFSLKPEDTAVYYCNAEYYEGYIGVPGSFWPYEYWGQGTQVTVSS | low polyreactivity |
| QVQLVESGGGLVQAGGSLRLSCAASGSTFGYYAMGWYRQAPGKERELVAAITSNDGSTNYADSVKGRFTISRDNAKKTVYLQMNSLKPEDTAVYYCNARSFVAVISSFDYWGQGTQVTVSS | low polyreactivity |
| QVQLVESGGGLVQAGGSLRLSCAASGRIFGTYAMGWYRQAPGKERELVAAITSSGSTNYADSVKGRFTISRDTAKKTVYLQMNSLKPEDTAVYYCAAVWVVFYYCYTVPVHYEYWGQGTQVTVSS | low polyreactivity |
| QVQLVESGGGLVQAGGSLRLSCAASGSIFWGYAMGWYRQAPGKERELVAAISSSGGNTYYADSVKGRFTISRDNAKNTVYLQMNSLKPEDTAVYYCAATPEFYGGKITDVYSQYGYWGQGSQVTVSS | low polyreactivity |
| QVQLVESGGGLVQAGGSLRLSCAASGSIFGYYAMGWYRQAPGKERELVAAITYSGGNTNYADSVKGRFTISRDNAKNTVYLQMNSLKPEDTAVYYCAARKNYQAVYARRTRYYYWGQGTQVTVSS | high polyreactivity |
| QVQLVESGGGLVQAGGSLRLSCAASGFTFNNYAMGWYRQAPGKERELVAAISSGAGTYYADSVKGRFTISRDNAKNTVYLQMNSLNPVDTSVDYCNASLKYQGRTRITYRDDYWGQGTQVTVSS | low polyreactivity |
| QVQLVESGGGLVQAGGSLRLSCAASGRIFSIYAMGWYRQAPGKERELVAAISSRGGSTYYADSVKGRFTISRDNAKNTVYLQMNSLKPEDTAVYYCNAVSWEGYDFDYWGQGTQVTVSS | high polyreactivity |
| QVQLEESGGGLVQAGGSLRLICAASGCIFEYNAMGWSRQAPRKEREFVAAINNSGGRTYYADSVKGRFTISRDNANNTVYLQMNSLKPEDTAVYYCAVYSYYRRTYRREMDYWGQGTQVTVSS | high polyreactivity |
| QVHLVESGGGLVQAGGSLRLTCAASGFTFSDNAMGWYRQAPGKERELVAAISRSGGRTYYADSVKGRFTISRDNAKKTVYLQMNSLKPEDTAVYYCAAYQYGMDYWGQGTQVTVSS | high polyreactivity |

| Sequence | polyreactivity (PSR sort gate) |
| --- | --- |
| QVQLVESGGGLVQAGGSLRLSCAASGRTFGNYVMGWYRQAPGKERELVAAISRSGGSTYYADSVKGRFTISRDNAKNTVYLQMNSLKPVDTAVYYCNTVTTYEVEYWGQGTQVNVSS | high polyreactivity |
| QVQLVESGGGLVQAGGSLRLSCAASGSILGANVMGWYRQAPGKERELVASISKSGGNTFYADSVKGRFTISRDNAKNTVYLQMNSLKPEDTAVYYCAKDVLGGQITDGVGNDYWGQGTQVTVSS | low polyreactivity |
| QVQLVESGGGLVQAAGSLRLSCAASVNTFFKNAMGWYRQAPGKERELVAAISKGGGSTYYADSVKGRFTISRDNAKNTVYLQMNSLKPEDTAVYYCAADTFGVYASTYDYWGQGTQVTVSS | high polyreactivity |
| QVQLVESGGGLVQAGGSLRLSCAASGNHLRSLSLGWNRQAPGKQRELVAAITSSGASTYYADSVKGRFTNSRDNAKNSVYLQMNSLKPEDSAVYYCAAYLFRRYDYWGQGTQVSVSS | low polyreactivity |
| QVQLVETGGGLVQAGGSLRISCAASGLILDGYALGWYRQAPGKERELVAAITRSGGRTYYADSVKWRFTISRDNAKNTVYLQMNRLKPEDTAVYDCAALGWSGRYRYDYWGQGTLVTVSS | high polyreactivity |
| QVQLVESGGGLVQAGGSLRLSCAASGSTFGGSAMGWYRQAPGKERELVAAISKSGGSTYYADSVKGRFTISRDNAKNTVYLQMNSLKPEDTAVYYCNAPYKRSPYNYWGQGTQVTVSS | high polyreactivity |
| QVQLVESGGGLVQAGGSLRLSCAASGRTFSKNVMGWYRQAPGKEREFVARISDSGVGTYYADSVKGRFTISRDNAKNTVYLQMNSLKPEDTAVYYCDKQYGGRYGYWGQGTQVTVSS | low polyreactivity |
| QVHLVESGGGLVQAGGSLRLSCAASGSTFYYNAIGWYRQAPGKERELVARISRSGGSTYADSVKGRFTISRDKAKNTFYLQMNSLKPEDTAVYYCNADAYGTPEFTSYAVRYDYWGQGTQVTVSS | low polyreactivity |
| HVQLVESGVGLVQAAGSLRLSCAASGLIFRWYAMGWYRQAPVKERELFAAISRGGSTNYADSVKGRFTISRDNAKNTVYLQMNSLKPEDTAVYYCATVYSVRYGGRYYYAFGLYDYWGQGTQVTVSS | high polyreactivity |
| QVQLVESGGGLVQAGGSLRLSCAASGFTFRQYAMGWYRQAPGKERELVAAISRSGSRTYYADSVKGRFTISRDNAKNTVYLQMNSLKPEDTAVYYCAARSYYNGKISRVGYWGQGTQVTVSS | high polyreactivity |
| QVQLVESGGGLVQAGGSLRLSCAASGLTFNHYAMGWYRQAPGKERELVAAISSGSSTDYADSVKGRFTISRDNAKTTVYLQMHSLKPEDTAVYYCAVETPSTWFWGWGYDYDYWGQGTQVTVSS | high polyreactivity |
| QVQLVQAGGGLVQAGGSLRLSSAPSGFTLYHYARGWYSQAPGKERQLVASITRSGASTYYPDSVKGRFTISRDNAKYTVYVQMNSLKPEDPAVYYCNKVRYTSSIWTYYDWGQGTQVTVSS | high polyreactivity |
| QVHLVESGGALVQAGGSLRLSCAASGRIFGGYTMGWYRQAPGKEREFVAAITSSGGSTYYADSVKGRFTISRDNAKNTVYLQMNSLKPEDTAVYYCAVDDYYYDYDYWGQGTQVTVSS | low polyreactivity |
| QVQHVESVGGLVQAGGSLRLSCAASGSIFEYNAMGWYRQAPGKERELVAAISWSSGTTYYADSVKGRFTISRDNAKNTVYLQMNSLKPEDTAVYYCNAGRYGKDSDYWGQGTQVTVSS | low polyreactivity |
| QVQLVESGGGLVQAGGSLRLSCAASGSTFLTNAMGWYRQAPGKERELVAAITWSGTSTYADSVKGRFTISRDNAKNTVYLQMNSLKPDDTAVYYCAAPILSFPSPYVQYDYWGQGTQVTVSS | low polyreactivity |
| QVQLVESGGGLVQAGGSLRLSCAASGITFPFYAMGWYRQAPGKERELVAGITSGGSTYYADSVKGRFTISRDNAKNTVYLQMNSLKPEDTAVYYCAAPFYRQSLIEYDFWGQGTQVTVSS | high polyreactivity |
| QVQLVESGGGLVQAGGSLRLSCAASGYIFPTNAMGWYRPATRKERELLAVITSGGSTYYADSVKGRFTISRDNAKNTVYLLMNSLKPDDTAVYYCAARYQGRYGIYRVLYGYWGQGTQVTVSS | high polyreactivity |
| QVQLVESGGGLVQPGGSLRLSCAASGSTLTLYDMGWYRQAPGKEWEFVAAIRSHGVSTYYADSEKGRFTISRDNAKNTVYLQMNSLQPEDTAVYYCSSVYIPGGRYTYFPYKRYDYWGQGTKVTVSS | high polyreactivity |
| QVQLVESGGGLVQAGGSLRLSCAASGSTFGHYAMGWYRQAPGKERELVAAITWSGGSTYYADSVKGRFTISRDNAKNTVYLQMNSLKPEDTAVYYCNAVTRRSAQVGHDYWGQGTQVTVSS | high polyreactivity |
| QVQLVESGGGLVQAGGSLRLSCAASGFIFDSYAMGWYRQAPGKERELVAAISWSGGRTYYADSVKGRFTISRDNAKNTVFLQMNSLKPEDSAVYYCAADTWFGMDYWGQGTEVTVSS | high polyreactivity |
| QVQLVESGGGLVQAGGSLRLSCAASGRIFWYYAMGWYRQAPGKDWELVATITYSGVRTYYADSVKGRFTISRDNAKNSVYLQMNSLKPEDTAVYYCAAVPGASVYGYYWKFGYWGQGTQLTVSS | high polyreactivity |
